According to patent US20260242735A1 (UNIVERSIT T BASEL, published 2026):

Assays:
Assay in all cases: flow cytometry, transfected cells
human CD33 Y49C = human CD33 Y49C (human, UniProt P20138 18-364)
human CD33 Y49D = human CD33 Y49D (human, UniProt P20138 18-364)
human CD33 Y49G = human CD33 Y49G (human, UniProt P20138 18-364)
human CD33 I47Q = human CD33 I47Q (human, UniProt P20138 18-364)
human CD33 D51K = human CD33 D51K (human, UniProt P20138 18-364)
human CD33 I47R = human CD33 I47R (human, UniProt P20138 18-364)
human CD33 F44P = human CD33 F44P (human, UniProt P20138 18-364)
human CD33 R122S = human CD33 R122S (human, UniProt P20138 18-364)
human CD33 R122T = human CD33 R122T (human, UniProt P20138 18-364)
human CD33 F44Q = human CD33 F44Q (human, UniProt P20138 18-364)
human CD33 F44H = human CD33 F44H (human, UniProt P20138 18-364)
human CD33 R122F = human CD33 R122F (human, UniProt P20138 18-364)
human CD33 F44T = human CD33 F44T (human, UniProt P20138 18-364)
human CD33 F44D = human CD33 F44D (human, UniProt P20138 18-364)
human CD33 R122I = human CD33 R122I (human, UniProt P20138 18-364)
human CD33 F44V = human CD33 F44V (human, UniProt P20138 18-364)
human CD33 Y49P = human CD33 Y49P (human, UniProt P20138 18-364)
human CD33 I47T = human CD33 I47T (human, UniProt P20138 18-364)
human CD33 I47G = human CD33 I47G (human, UniProt P20138 18-364)
human CD33 F44I = human CD33 F44I (human, UniProt P20138 18-364)
human CD33 K52D = human CD33 K52D (human, UniProt P20138 18-364)
human CD33 I47W = human CD33 I47W (human, UniProt P20138 18-364)
human CD33 I47L = human CD33 I47L (human, UniProt P20138 18-364)
human CD33 F44L = human CD33 F44L (human, UniProt P20138 18-364)
human CD33 I47Y = human CD33 I47Y (human, UniProt P20138 18-364)
human CD33 F44S = human CD33 F44S (human, UniProt P20138 18-364)
human CD33 R122E = human CD33 R122E (human, UniProt P20138 18-364)
human CD33 I47F = human CD33 I47F (human, UniProt P20138 18-364)
human CD33 F44E = human CD33 F44E (human, UniProt P20138 18-364)
human CD33 I47N = human CD33 I47N (human, UniProt P20138 18-364)
human CD33 I47S = human CD33 I47S (human, UniProt P20138 18-364)
human CD33 I47E = human CD33 I47E (human, UniProt P20138 18-364)
human CD33 I47P = human CD33 I47P (human, UniProt P20138 18-364)

Measured: binding result

Chain of human CD33 Y49P (P20138 18-364 Y49P limits assumed): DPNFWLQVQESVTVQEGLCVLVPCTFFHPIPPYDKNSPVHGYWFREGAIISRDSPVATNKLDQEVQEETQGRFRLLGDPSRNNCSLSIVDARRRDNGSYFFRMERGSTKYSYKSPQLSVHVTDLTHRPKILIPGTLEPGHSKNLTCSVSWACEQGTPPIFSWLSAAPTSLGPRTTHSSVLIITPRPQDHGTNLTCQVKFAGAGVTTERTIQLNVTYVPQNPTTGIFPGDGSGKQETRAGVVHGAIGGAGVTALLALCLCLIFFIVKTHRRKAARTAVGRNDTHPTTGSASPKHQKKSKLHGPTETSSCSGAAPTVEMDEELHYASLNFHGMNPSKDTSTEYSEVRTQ
Chain of human CD33 R122S (P20138 18-364 R122S limits assumed): as the sequence (P20138 18-364 Y49P limits assumed) above, with P32Y, R105S counted along it
Chain of human CD33 I47Y (P20138 18-364 I47Y limits assumed): as the sequence (P20138 18-364 Y49P limits assumed) above, with I30Y, P32Y counted along it
Chain of human CD33 I47N (P20138 18-364 I47N limits assumed): as the sequence (P20138 18-364 Y49P limits assumed) above, with I30N, P32Y counted along it
Chain of human CD33 I47G (P20138 18-364 I47G limits assumed): as the sequence (P20138 18-364 Y49P limits assumed) above, with I30G, P32Y counted along it
Chain of human CD33 I47T (P20138 18-364 I47T limits assumed): as the sequence (P20138 18-364 Y49P limits assumed) above, with I30T, P32Y counted along it
Chain of human CD33 F44S (P20138 18-364 F44S limits assumed): as the sequence (P20138 18-364 Y49P limits assumed) above, with F27S, P32Y counted along it
Chain of human CD33 R122F (P20138 18-364 R122F limits assumed): as the sequence (P20138 18-364 Y49P limits assumed) above, with P32Y, R105F counted along it
Chain of human CD33 F44H (P20138 18-364 F44H limits assumed): as the sequence (P20138 18-364 Y49P limits assumed) above, with F27H, P32Y counted along it
Chain of human CD33 Y49D (P20138 18-364 Y49D limits assumed): as the sequence (P20138 18-364 Y49P limits assumed) above, with P32D counted along it
Chain of human CD33 Y49G (P20138 18-364 Y49G limits assumed): as the sequence (P20138 18-364 Y49P limits assumed) above, with P32G counted along it
Chain of human CD33 K52D (P20138 18-364 K52D limits assumed): as the sequence (P20138 18-364 Y49P limits assumed) above, with P32Y, K35D counted along it
Chain of human CD33 F44V (P20138 18-364 F44V limits assumed): as the sequence (P20138 18-364 Y49P limits assumed) above, with F27V, P32Y counted along it
Chain of human CD33 I47L (P20138 18-364 I47L limits assumed): as the sequence (P20138 18-364 Y49P limits assumed) above, with I30L, P32Y counted along it
Chain of human CD33 I47R (P20138 18-364 I47R limits assumed): as the sequence (P20138 18-364 Y49P limits assumed) above, with I30R, P32Y counted along it
Chain of human CD33 I47S (P20138 18-364 I47S limits assumed): as the sequence (P20138 18-364 Y49P limits assumed) above, with I30S, P32Y counted along it
Chain of human CD33 F44Q (P20138 18-364 F44Q limits assumed): as the sequence (P20138 18-364 Y49P limits assumed) above, with F27Q, P32Y counted along it
Chain of human CD33 R122I (P20138 18-364 R122I limits assumed): as the sequence (P20138 18-364 Y49P limits assumed) above, with P32Y, R105I counted along it
Chain of human CD33 I47F (P20138 18-364 I47F limits assumed): as the sequence (P20138 18-364 Y49P limits assumed) above, with I30F, P32Y counted along it
Chain of human CD33 I47E (P20138 18-364 I47E limits assumed): as the sequence (P20138 18-364 Y49P limits assumed) above, with I30E, P32Y counted along it
Chain of human CD33 F44T (P20138 18-364 F44T limits assumed): as the sequence (P20138 18-364 Y49P limits assumed) above, with F27T, P32Y counted along it
Chain of human CD33 F44L (P20138 18-364 F44L limits assumed): as the sequence (P20138 18-364 Y49P limits assumed) above, with F27L, P32Y counted along it
Chain of human CD33 I47W (P20138 18-364 I47W limits assumed): as the sequence (P20138 18-364 Y49P limits assumed) above, with I30W, P32Y counted along it
Chain of human CD33 R122T (P20138 18-364 R122T limits assumed): as the sequence (P20138 18-364 Y49P limits assumed) above, with P32Y, R105T counted along it
Chain of human CD33 F44P (P20138 18-364 F44P limits assumed): as the sequence (P20138 18-364 Y49P limits assumed) above, with F27P, P32Y counted along it
Chain of human CD33 R122E (P20138 18-364 R122E limits assumed): as the sequence (P20138 18-364 Y49P limits assumed) above, with P32Y, R105E counted along it
Chain of human CD33 F44D (P20138 18-364 F44D limits assumed): as the sequence (P20138 18-364 Y49P limits assumed) above, with F27D, P32Y counted along it
Chain of human CD33 I47P (P20138 18-364 I47P limits assumed): as the sequence (P20138 18-364 Y49P limits assumed) above, with I30P, P32Y counted along it
Chain of human CD33 F44I (P20138 18-364 F44I limits assumed): as the sequence (P20138 18-364 Y49P limits assumed) above, with F27I, P32Y counted along it
Chain of human CD33 Y49C (P20138 18-364 Y49C limits assumed): as the sequence (P20138 18-364 Y49P limits assumed) above, with P32C counted along it
Chain of human CD33 D51K (P20138 18-364 D51K limits assumed): as the sequence (P20138 18-364 Y49P limits assumed) above, with P32Y, D34K counted along it
Chain of human CD33 I47Q (P20138 18-364 I47Q limits assumed): as the sequence (P20138 18-364 Y49P limits assumed) above, with I30Q, P32Y counted along it
Chain of human CD33 F44E (P20138 18-364 F44E limits assumed): as the sequence (P20138 18-364 Y49P limits assumed) above, with F27E, P32Y counted along it

B1: Refmab #2 (antibody, human IgG1, V domains shown)
VH: QVQLVQSGAEVKKPGSSVKVSCKASGGTFSDYAISWVRQAPGQGLEWMGRIIPILGVADYAQKFQGRVTITADKSTRTAYMELSSLRSEDTAVYYCARNWADAFDIWGQGTMVTVSS
VL: DIQLTQSPSSLSASVGDRVTITCRASQGISSVLAWYQQKPGKAPKLLIYDASSLESGVPSRFSGSGSGTDFTLTISSLQPEDFATYYCQQFDSSITFGQGTKLEIK
no binding (tested: below 20%): human CD33 Y49C | human CD33 Y49D | human CD33 Y49G | human CD33 I47Q | human CD33 D51K | human CD33 I47R | human CD33 F44P | human CD33 R122S | human CD33 R122T | human CD33 F44Q | human CD33 F44H | human CD33 R122F | human CD33 F44T | human CD33 F44D | human CD33 R122I | human CD33 F44V | human CD33 Y49P | human CD33 I47T | human CD33 I47G | human CD33 F44I | human CD33 K52D | human CD33 I47W | human CD33 I47L | human CD33 F44L | human CD33 I47Y | human CD33 F44S | human CD33 R122E | human CD33 I47F | human CD33 F44E | human CD33 I47N | human CD33 I47S | human CD33 I47E | human CD33 I47P
